Target: CD16a ectodomain (Human CD16a, amino acids Met1-Gln208, C-terminal His-tag) (human)
Experiment: BLI

SARS-CoV-2 ORF8 (aa16-121), His Tag (from UniProt P0DTC8 16-121) (natural protein)
Kd: 38.9 nM

From PMC9230529
